# Assay results from paper doi:10.1101/2025.05.20.653754 (bioRxiv, 2025).
# B1: full-length Arabidopsis thaliana DUR3 fused with C-terminal GFP (natural protein, UniProt F4KD71 1-704, looked up)
# chain: MATCPPFDFSTKYYDGDGGCQRQSSFFGGTTVLDQGVGYAVILGFGAFFAVFTSFLVWLEKRYVGARHTSEWFNTAGRNVKTGLIASVIVSQWTWAATILQSSNVAWQYGVSGPFWYASGATIQVLLFGVMAIEIKRKAPNAHTVCEIVKARWGTATHIVFLVFCLATNVVVTAMLLLGGSAVVNALTGVNLYAASFLIPLGVVVYTLAGGLKATFLASYVHSVIVHVALVVFVFLVYTSSKELGSPSVVYDRLKDMVAKSRSCTEPLSHHGQACGPVDGNFRGSYLTMLSSGGAVFGLINIVGNFGTVFVDNGYWVSAIAARPSSTHKGYLLGGLVWFAVPFSLATSLGLGALALDLPISKDEADRGLVPPATAIALMGKSGSLLLLTMLFMAVTSAGSSELIAVSSLFTYDIYRTYINPRATGRQILKISRCAVLGFGCFMGILAVVLNKAGVSLGWMYLAMGVLIGSAVIPIAFMLLWSKANAFGAILGATSGCVFGIITWLTTAKTQYGRVDLDSTGKNGPMLAGNLVAILTGGLIHAVCSLVRPQNYDWSTTREIKVVEAYASGDEDVDVPAEELREEKLRRAKAWIVKWGLVFTILIVVIWPVLSLPARVFSRGYFWFWAIVAIAWGTIGSIVIIGLPLVESWDTIKSVCMGMFTNDRVMKKLDDLNHRLRALTMAVPEAEKIYLLELEKTKKNDEEG
# B2: full-length rice DUR3 (OsDUR3) fused with C-terminal GFP (natural protein, Oryza sativa, UniProt Q7XBS0 1-721, looked up)
# chain: MASGVCPPAELGFGAEYYSVVNGVCSRAGSYFGGRPVLTQAVGYAVVLGFGAFFALFTSFLVWLEKRYVGSQHTSEWFNTAGRSVKTGLIASVIVSQWTWAATILQSSNVAWQYGVSGPFWYASGATIQVLLFGVMAIEIKRKAPNAHTVCEIVRARWGTPAHLVFLTFCLLTNVIVTAMLLLGGSAVVNALTGVNVYAASFLIPLGVVVYTLAGGLKATFLASYIHSVVVHAVLVVFVFLVYTSSSKLGSPRVVYDRLMAVASAARDCSADLSRNGQACGPVAGNFKGSYLTMLSSGGLVFGIINIVGNFGTVFVDNGYWMSAIAARPSSTHKGYLLGGLVWFAVPFSLATSLGLGALALDLPLTAAEAAKGLVPPATATALMGKSGSVLLLTMLFMAVTSAGSAELVAVSSLCTYDIYRTYLNPGASGKQILRVSRAVVLGFGCFMGVLAVVLNVAGVSLGWMYLAMGVIVGSAVIPIALLLLWSKANAVGAMGGAVSGCALGVAVWLTVAKVQYGRVNLDTTGRNAPMLAGNLVSILVGGAVHAACSLLRPQHYDWGTSREMITTVESVHAALDDELKEERLVHAKRWIVRWGLVFTAVIVVAWPALSLPARRYSLGYFTLWAAVAIAWGTVGSVVIILLPVAESWTTITKVCAGMFTNDAVYDRLDDVNLRLRAIMGAMPEAEKRYRQLHETEMHPAGTHPANDDDDDNNNNQMMHS
# Columns and labels:
# [1] = molecular target: full-length Physcomitrium patens DUR3 (PpDUR3) fused with C-terminal GFP (Physcomitrium patens); assay: SEC
# [2] = molecular target: full-length maize DUR3 fused with C-terminal GFP (Zea mays L.); assay: SEC
# [3] = molecular target: maize DUR3 (ZmDUR3) with a C-terminal Strep-tag (Zea mays L.); assay: cryo-EM structure
# SEC = molecular target: the molecule itself; assay: SEC
molecule,measurement,setting,value
full-length Physcomitrium patens DUR3 (PpDUR3) fused with C-terminal GFP (natural protein),stoichiometry N,[1],4
full-length maize DUR3 fused with C-terminal GFP (natural protein),stoichiometry N,[2],4
maize DUR3 (ZmDUR3) with a C-terminal Strep-tag (natural protein),stoichiometry N,[3],4
B1,stoichiometry N,SEC,4
B2,stoichiometry N,SEC,4
